B1: Isovaleric Acid-E-T-H-F-P-A-I-[Lys(Ahx_C14_acid)]-F-E-P-R-S-K-G-A-[(D)Lys]-NH2 (peptide)
peptide: Isovaleryl-ETHFPAIK([Ahx-Myristoyl])FEPRSKGA[dK]-NH2
SMILES: CCCCCCCCCCCCCC(=O)NCCCCCC(=O)NCCCC[C@H](NC(=O)[C@@H](NC(=O)[C@H](C)NC(=O)[C@@H]1CCCN1C(=O)[C@H](Cc1ccccc1)NC(=O)[C@H](Cc1c[nH]cn1)NC(=O)[C@@H](NC(=O)[C@H](CCC(=O)O)NC(=O)CC(C)C)[C@@H](C)O)[C@@H](C)CC)C(=O)N[C@@H](Cc1ccccc1)C(=O)N[C@@H](CCC(=O)O)C(=O)N1CCC[C@H]1C(=O)N[C@@H](CCCNC(=N)N)C(=O)N[C@@H](CO)C(=O)N[C@@H](CCCCN)C(=O)NCC(=O)N[C@@H](C)C(=O)N[C@H](CCCCN)C(N)=O
B2: Isovaleric Acid-E-T-H-F-P-Dap-I-[Lys(1PEG2_1PEG2_IsoGlu_C18_Diacid)]-F-E-P-R-S-K-G-E-K-NH2 (peptide)
peptide: Isovaleryl-ETHFP[Dap]IK([AEEA-AEEA-γGlu-C18 diacid])FEPRSKGEK-NH2
modifications: lactam 6-16
SMILES: CC[C@H](C)[C@@H]1NC(=O)[C@@H](NC(=O)[C@@H]2CCCN2C(=O)[C@H](Cc2ccccc2)NC(=O)[C@H](Cc2c[nH]cn2)NC(=O)[C@@H](NC(=O)[C@H](CCC(=O)O)NC(=O)CC(C)C)[C@@H](C)O)CNC(=O)CC[C@@H](C(=O)N[C@@H](CCCCN)C(N)=O)NC(=O)CNC(=O)[C@H](CCCCN)NC(=O)[C@H](CO)NC(=O)[C@H](CCCNC(=N)N)NC(=O)[C@@H]2CCCN2C(=O)[C@H](CCC(=O)O)NC(=O)[C@H](Cc2ccccc2)NC(=O)[C@H](CCCCNC(=O)COCCOCCNC(=O)COCCOCCNC(=O)CC[C@H](NC(=O)CCCCCCCCCCCCCCCCC(=O)O)C(=O)O)NC1=O
B3: Isovaleric Acid-E-T-H-F-P-D-I-[Lys(1PEG2_1PEG2_IsoGlu_C18_Diacid)]-F-E-P-R-S-K-G-Dap-K-NH2 (peptide)
peptide: Isovaleryl-ETHFPDIK([AEEA-AEEA-γGlu-C18 diacid])FEPRSKG[Dap]K-NH2
modifications: lactam 6-16
SMILES: CC[C@H](C)[C@@H]1NC(=O)[C@@H](NC(=O)[C@@H]2CCCN2C(=O)[C@H](Cc2ccccc2)NC(=O)[C@H](Cc2c[nH]cn2)NC(=O)[C@@H](NC(=O)[C@H](CCC(=O)O)NC(=O)CC(C)C)[C@@H](C)O)CC(=O)NC[C@@H](C(=O)N[C@@H](CCCCN)C(N)=O)NC(=O)CNC(=O)[C@H](CCCCN)NC(=O)[C@H](CO)NC(=O)[C@H](CCCNC(=N)N)NC(=O)[C@@H]2CCCN2C(=O)[C@H](CCC(=O)O)NC(=O)[C@H](Cc2ccccc2)NC(=O)[C@H](CCCCNC(=O)COCCOCCNC(=O)COCCOCCNC(=O)CC[C@H](NC(=O)CCCCCCCCCCCCCCCCC(=O)O)C(=O)O)NC1=O
B4: Isovaleric Acid-E-T-H-F-P-A-I-[Lys(Ahx_C14_acid)]-F-E-P-R-S-K-G-[(D)Ala]-NH2 (peptide)
peptide: Isovaleryl-ETHFPAIK([Ahx-Myristoyl])FEPRSKG[dA]-NH2
SMILES: CCCCCCCCCCCCCC(=O)NCCCCCC(=O)NCCCC[C@H](NC(=O)[C@@H](NC(=O)[C@H](C)NC(=O)[C@@H]1CCCN1C(=O)[C@H](Cc1ccccc1)NC(=O)[C@H](Cc1c[nH]cn1)NC(=O)[C@@H](NC(=O)[C@H](CCC(=O)O)NC(=O)CC(C)C)[C@@H](C)O)[C@@H](C)CC)C(=O)N[C@@H](Cc1ccccc1)C(=O)N[C@@H](CCC(=O)O)C(=O)N1CCC[C@H]1C(=O)N[C@@H](CCCNC(=N)N)C(=O)N[C@@H](CO)C(=O)N[C@@H](CCCCN)C(=O)NCC(=O)N[C@H](C)C(N)=O
B5: Isovaleric Acid-[Lys(1PEG2_1PEG2_IsoGlu_C18_Diacid)]-T-H-[Dpa]-P-A-I-[(D)Lys]-[bhPhe]-NH2 (peptide)
peptide: Isovaleryl-K([AEEA-AEEA-γGlu-C18 diacid])TH[Dip]PAI[dK][β3hF]-NH2
SMILES: CC[C@H](C)[C@H](NC(=O)[C@H](C)NC(=O)[C@@H]1CCCN1C(=O)[C@@H](NC(=O)[C@H](Cc1c[nH]cn1)NC(=O)[C@@H](NC(=O)[C@H](CCCCNC(=O)COCCOCCNC(=O)COCCOCCNC(=O)CC[C@H](NC(=O)CCCCCCCCCCCCCCCCC(=O)O)C(=O)O)NC(=O)CC(C)C)[C@@H](C)O)C(c1ccccc1)c1ccccc1)C(=O)N[C@H](CCCCN)C(=O)N[C@H](CC(N)=O)Cc1ccccc1
B6: Isovaleric Acid-[Lys(1PEG2_1PEG2_Ahx_C18_Diacid)]-T-H-[Dpa]-P-A-I-[(D)Lys]-[bhPhe]-NH2 (peptide)
peptide: Isovaleryl-K([AEEA-AEEA-Ahx-C18 diacid])TH[Dip]PAI[dK][β3hF]-NH2
SMILES: CC[C@H](C)[C@H](NC(=O)[C@H](C)NC(=O)[C@@H]1CCCN1C(=O)[C@@H](NC(=O)[C@H](Cc1c[nH]cn1)NC(=O)[C@@H](NC(=O)[C@H](CCCCNC(=O)COCCOCCNC(=O)COCCOCCNC(=O)CCCCCNC(=O)CCCCCCCCCCCCCCCCC(=O)O)NC(=O)CC(C)C)[C@@H](C)O)C(c1ccccc1)c1ccccc1)C(=O)N[C@H](CCCCN)C(=O)N[C@H](CC(N)=O)Cc1ccccc1
B7: Ac-[Lys(1PEG2_1PEG2_IsoGlu_C18_Diacid)]-T-H-[Dpa]-P-A-I-[(D)Lys]-[bhPhe]-NH2 (peptide)
peptide: Ac-K([AEEA-AEEA-γGlu-C18 diacid])TH[Dip]PAI[dK][β3hF]-NH2
SMILES: CC[C@H](C)[C@H](NC(=O)[C@H](C)NC(=O)[C@@H]1CCCN1C(=O)[C@@H](NC(=O)[C@H](Cc1c[nH]cn1)NC(=O)[C@@H](NC(=O)[C@H](CCCCNC(=O)COCCOCCNC(=O)COCCOCCNC(=O)CC[C@H](NC(=O)CCCCCCCCCCCCCCCCC(=O)O)C(=O)O)NC(C)=O)[C@@H](C)O)C(c1ccccc1)c1ccccc1)C(=O)N[C@H](CCCCN)C(=O)N[C@H](CC(N)=O)Cc1ccccc1
B8: Ac-[Lys(1PEG2_1PEG2_Ahx_C18_Diacid)]-T-H-[Dpa]-P-A-I-[(D)Lys]-[bhPhe]-NH2 (peptide)
peptide: Ac-K([AEEA-AEEA-Ahx-C18 diacid])TH[Dip]PAI[dK][β3hF]-NH2
SMILES: CC[C@H](C)[C@H](NC(=O)[C@H](C)NC(=O)[C@@H]1CCCN1C(=O)[C@@H](NC(=O)[C@H](Cc1c[nH]cn1)NC(=O)[C@@H](NC(=O)[C@H](CCCCNC(=O)COCCOCCNC(=O)COCCOCCNC(=O)CCCCCNC(=O)CCCCCCCCCCCCCCCCC(=O)O)NC(C)=O)[C@@H](C)O)C(c1ccccc1)c1ccccc1)C(=O)N[C@H](CCCCN)C(=O)N[C@H](CC(N)=O)Cc1ccccc1
B9: Isovaleric Acid-E-T-H-F-P-Dap-I-[Lys(1PEG2_1PEG2_IsoGlu_C18_Diacid)]-F-E-P-R-S-K-G-D-K-NH2 (peptide)
peptide: Isovaleryl-ETHFP[Dap]IK([AEEA-AEEA-γGlu-C18 diacid])FEPRSKGDK-NH2
modifications: lactam 6-16
SMILES: CC[C@H](C)[C@@H]1NC(=O)[C@@H](NC(=O)[C@@H]2CCCN2C(=O)[C@H](Cc2ccccc2)NC(=O)[C@H](Cc2c[nH]cn2)NC(=O)[C@@H](NC(=O)[C@H](CCC(=O)O)NC(=O)CC(C)C)[C@@H](C)O)CNC(=O)C[C@@H](C(=O)N[C@@H](CCCCN)C(N)=O)NC(=O)CNC(=O)[C@H](CCCCN)NC(=O)[C@H](CO)NC(=O)[C@H](CCCNC(=N)N)NC(=O)[C@@H]2CCCN2C(=O)[C@H](CCC(=O)O)NC(=O)[C@H](Cc2ccccc2)NC(=O)[C@H](CCCCNC(=O)COCCOCCNC(=O)COCCOCCNC(=O)CC[C@H](NC(=O)CCCCCCCCCCCCCCCCC(=O)O)C(=O)O)NC1=O
B10: Isovaleric Acid-E-T-H-F-P-E-I-[Lys(1PEG2_1PEG2_IsoGlu_C18_Diacid)]-F-E-P-R-S-K-G-Dap-K-NH2 (peptide)
peptide: Isovaleryl-ETHFPEIK([AEEA-AEEA-γGlu-C18 diacid])FEPRSKG[Dap]K-NH2
modifications: lactam 6-16
SMILES: CC[C@H](C)[C@@H]1NC(=O)[C@@H](NC(=O)[C@@H]2CCCN2C(=O)[C@H](Cc2ccccc2)NC(=O)[C@H](Cc2c[nH]cn2)NC(=O)[C@@H](NC(=O)[C@H](CCC(=O)O)NC(=O)CC(C)C)[C@@H](C)O)CCC(=O)NC[C@@H](C(=O)N[C@@H](CCCCN)C(N)=O)NC(=O)CNC(=O)[C@H](CCCCN)NC(=O)[C@H](CO)NC(=O)[C@H](CCCNC(=N)N)NC(=O)[C@@H]2CCCN2C(=O)[C@H](CCC(=O)O)NC(=O)[C@H](Cc2ccccc2)NC(=O)[C@H](CCCCNC(=O)COCCOCCNC(=O)COCCOCCNC(=O)CC[C@H](NC(=O)CCCCCCCCCCCCCCCCC(=O)O)C(=O)O)NC1=O
B11: Isovaleric Acid-E-T-H-F-P-A-I-[Lys(Ahx_C14_acid)]-F-E-P-R-[(D)Ser]-NH2 (peptide)
peptide: Isovaleryl-ETHFPAIK([Ahx-Myristoyl])FEPR[dS]-NH2
SMILES: CCCCCCCCCCCCCC(=O)NCCCCCC(=O)NCCCC[C@H](NC(=O)[C@@H](NC(=O)[C@H](C)NC(=O)[C@@H]1CCCN1C(=O)[C@H](Cc1ccccc1)NC(=O)[C@H](Cc1c[nH]cn1)NC(=O)[C@@H](NC(=O)[C@H](CCC(=O)O)NC(=O)CC(C)C)[C@@H](C)O)[C@@H](C)CC)C(=O)N[C@@H](Cc1ccccc1)C(=O)N[C@@H](CCC(=O)O)C(=O)N1CCC[C@H]1C(=O)N[C@@H](CCCNC(=N)N)C(=O)N[C@H](CO)C(N)=O

Starred links: 1 amine or outer side, 2 acyl side, 3 side chain; linkers in the order of their positions; H or OH if unused. Positions of bridges follow the written chain, without caps; N, C: chain ends. Non-standard residues stand in square brackets, D forms with d. Groups on a side chain read outwards from the residue. *: point of attachment. Gal = N6-(4-(galactopyranosyloxy)butanoyl) on the lysine side chain; C18 diacid = O=C(O)CCCCCCCCCCCCCCCCC(=O)*; Dip = N[C@H](C(=O)O)C(c1ccccc1)c1ccccc1; γGlu = O=C(O)[C@H](CCC(=O)[*:2])N[*:1]; Palmitoyl = CCCCCCCCCCCCCCCC(=O)*; Myristoyl = CCCCCCCCCCCCCC(=O)*; β3hF = N[C@H](CC(=O)O)Cc1ccccc1; Isovaleryl = CC(C)CC(=O)*; Dap = NC[C@H](N)C(=O)O; AEEA = NCCOCCOCC(=O)O; Ahx = NCCCCCC(=O)O

The target of this assay is T1, human ferroportin (SLC40A1) fused in frame with GFP, stably expressed in HEK293 cells (human, UniProt Q9NP59 1-571).
T1 sequence (looked up): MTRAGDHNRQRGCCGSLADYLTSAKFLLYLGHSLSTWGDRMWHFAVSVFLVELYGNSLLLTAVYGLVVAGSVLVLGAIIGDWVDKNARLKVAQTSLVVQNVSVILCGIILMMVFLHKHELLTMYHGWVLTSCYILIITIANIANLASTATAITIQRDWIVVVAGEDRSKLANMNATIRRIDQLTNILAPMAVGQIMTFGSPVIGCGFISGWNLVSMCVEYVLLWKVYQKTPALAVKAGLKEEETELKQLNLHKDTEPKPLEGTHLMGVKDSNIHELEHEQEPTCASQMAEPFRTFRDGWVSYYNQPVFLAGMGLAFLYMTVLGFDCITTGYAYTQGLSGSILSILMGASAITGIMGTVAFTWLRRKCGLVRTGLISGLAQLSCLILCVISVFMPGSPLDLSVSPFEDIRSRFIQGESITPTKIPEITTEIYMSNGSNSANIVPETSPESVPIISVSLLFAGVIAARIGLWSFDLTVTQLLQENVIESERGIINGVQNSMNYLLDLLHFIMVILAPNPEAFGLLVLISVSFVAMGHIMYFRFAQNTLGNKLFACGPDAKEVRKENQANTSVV
The assay is described as follows: cell-based or functional assay.
As to B1, the “FPN IC50” value is 1160 nM.
As for B2, the figure is over 10000 nM.
As for Isovaleryl-ETHFPAIK([Ahx-C12 acid])FEPRSKGAK-NH2 [Isovaleric Acid-E-T-H-F-P-A-I-[Lys(Ahx_C12_acid)]-F-E-P-R-S-K-G-A-K-NH2], the figure is 1070 nM.
In the case of B3 it was over 10000 nM; in that of B4, 1070 nM.
Consider B5, for which the “FPN IC50” value stood at 2160 nM.
As for Isovaleryl-ETHFPAIK([Ahx-C10 acid])FEPRSKGAK-NH2 [Isovaleric Acid-E-T-H-F-P-A-I-[Lys(Ahx_C10_acid)]-F-E-P-R-S-K-G-A-K-NH2], the figure is over 3000 nM.
On to B6, for which the “FPN IC50” value stood at 1280 nM.
B7: the “FPN IC50” value came out at 3370 nM.
As for B8, the figure is over 3000 nM; as for Isovaleryl-K(Gal)TH[Dip]PK([Ahx-Palmitoyl])[β3hF]-NH2 [Isovaleric Acid-[Lys(Gal-T-H-[Dpa]-P-[Lys(Ahx_Palm)]-[bhPhe]-NH2], 758 nM; as for B9, 6110 nM.
As for Isovaleryl-K(GalNH)TH[Dip]PAIK([Ahx-Palmitoyl])[β3hF]-NH2 [Isovaleric Acid-[Lys(GalNH-T-H-[Dpa]-P-A-I-[Lys(Ahx_Palm)]-[bhPhe]-NH2], the “FPN IC50” value was 150 nM.
As for B10, the figure is over 10000 nM; as for B11, 1160 nM; as for Isovaleryl-ETHFPAIK([Ahx-Myristoyl])FEPRSKGAK-NH2 [Isovaleric Acid-E-T-H-F-P-A-I-[Lys(Ahx_C14_acid)]-F-E-P-R-S-K-G-A-K-NH2], 689 nM.

(Values after US20240066131A1 (Protagonist Therapeutics, Inc., priority 2020, published 2024).)
